{"source": "patent US20190040102A1", "about": "(CDRD VENTURES, published 2019)", "binders": {"B1": {"name": "Compound 12: H-Cpa-cyclo[D-Cys-Tyr-D-Phe(4-n-pentylamino)-Lys-Thr-Cys]-D-Tyr-NH2 (peptide)", "peptide": "XXYXKTCX", "HELM": "PEPTIDE1{[N[C@@H](Cc1ccc(Cl)cc1)C(=O)[*:2]].[dC].Y.[CCCCCNc1ccc(C[C@@H](N[*:1])C(=O)[*:2])cc1].K.T.C.[dY].[am]}$PEPTIDE1,PEPTIDE1,2:R3-7:R3$$$V2.0", "SMILES": "CCCCCNc1ccc(C[C@H]2NC(=O)[C@H](Cc3ccc(O)cc3)NC(=O)[C@H](NC(=O)[C@@H](N)Cc3ccc(Cl)cc3)CSSC[C@@H](C(=O)N[C@H](Cc3ccc(O)cc3)C(N)=O)NC(=O)[C@H]([C@@H](C)O)NC(=O)[C@H](CCCCN)NC2=O)cc1"}, "B2": {"name": "Compound 1: H-Cpa-cyclo[D-Cys-Tyr-D-Cit-Lys-Thr-Cys]-D-Tyr-NH2 (peptide)", "peptide": "XXYXKTCX", "HELM": "PEPTIDE1{[N[C@@H](Cc1ccc(Cl)cc1)C(=O)[*:2]].[dC].Y.[NC(=O)NCCC[C@@H](N[*:1])C(=O)[*:2]].K.T.C.[dY].[am]}$PEPTIDE1,PEPTIDE1,2:R3-7:R3$$$V2.0", "SMILES": "C[C@@H](O)[C@@H]1NC(=O)[C@H](CCCCN)NC(=O)[C@@H](CCCNC(N)=O)NC(=O)[C@H](Cc2ccc(O)cc2)NC(=O)[C@H](NC(=O)[C@@H](N)Cc2ccc(Cl)cc2)CSSC[C@@H](C(=O)N[C@H](Cc2ccc(O)cc2)C(N)=O)NC1=O"}, "B3": {"name": "Compound 15: H-Cpa-cyclo[D-Cys-Tyr-D-Phe(4-phenylureido)-Lys-Thr-Cys]-D-Tyr-NH2 (peptide)", "peptide": "XXYXKTCX", "HELM": "PEPTIDE1{[N[C@@H](Cc1ccc(Cl)cc1)C(=O)[*:2]].[dC].Y.[O=C(Nc1ccccc1)Nc1ccc(C[C@@H](N[*:1])C(=O)[*:2])cc1].K.T.C.[dY].[am]}$PEPTIDE1,PEPTIDE1,2:R3-7:R3$$$V2.0", "SMILES": "C[C@@H](O)[C@@H]1NC(=O)[C@H](CCCCN)NC(=O)[C@@H](Cc2ccc(NC(=O)Nc3ccccc3)cc2)NC(=O)[C@H](Cc2ccc(O)cc2)NC(=O)[C@H](NC(=O)[C@@H](N)Cc2ccc(Cl)cc2)CSSC[C@@H](C(=O)N[C@H](Cc2ccc(O)cc2)C(N)=O)NC1=O"}, "B4": {"name": "Compound 24: H-Cpa-cyclo[D-Cys-Tyr-D-Phe(4-carbamoyl)-Lys(Nε-Me)-Thr-Cys]-D-Tyr-NH2 (peptide)", "peptide": "H-[Phe(4-Cl)][dC]Y[dPhe(4-CONH2)]K(Me)TC[dY]-NH2", "modifications": "disulfide 2-7", "SMILES": "CNCCCC[C@@H]1NC(=O)[C@@H](Cc2ccc(C(N)=O)cc2)NC(=O)[C@H](Cc2ccc(O)cc2)NC(=O)[C@H](NC(=O)[C@@H](N)Cc2ccc(Cl)cc2)CSSC[C@@H](C(=O)N[C@H](Cc2ccc(O)cc2)C(N)=O)NC(=O)[C@H]([C@@H](C)O)NC1=O"}, "B5": {"name": "Compound 14: H-Cpa-cyclo[DCys-Tyr-D-4-(benzenesulfonyl)Aph-Lys-Thr-Cys]-DTyr-NH2 (peptide)", "peptide": "XXYXKTCX", "HELM": "PEPTIDE1{[N[C@@H](Cc1ccc(Cl)cc1)C(=O)[*:2]].[dC].Y.[O=C([C@@H](Cc1ccc(NS(=O)(=O)c2ccccc2)cc1)N[*:1])[*:2]].K.T.C.[dY].[am]}$PEPTIDE1,PEPTIDE1,2:R3-7:R3$$$V2.0", "SMILES": "C[C@@H](O)[C@@H]1NC(=O)[C@H](CCCCN)NC(=O)[C@@H](Cc2ccc(NS(=O)(=O)c3ccccc3)cc2)NC(=O)[C@H](Cc2ccc(O)cc2)NC(=O)[C@H](NC(=O)[C@@H](N)Cc2ccc(Cl)cc2)CSSC[C@@H](C(=O)N[C@H](Cc2ccc(O)cc2)C(N)=O)NC1=O"}, "B6": {"name": "Compound 3: H-Cpa-cyclo[DCys-Tyr-D-(Nε-nicotinoyl)Lys-Lys-Thr-Cys]-DTyr-NH2 (peptide)", "peptide": "H-[Phe(4-Cl)][dC]Y[dK](Nicotinoyl)KTC[dY]-NH2", "modifications": "disulfide 2-7", "SMILES": "C[C@@H](O)[C@@H]1NC(=O)[C@H](CCCCN)NC(=O)[C@@H](CCCCNC(=O)c2cccnc2)NC(=O)[C@H](Cc2ccc(O)cc2)NC(=O)[C@H](NC(=O)[C@@H](N)Cc2ccc(Cl)cc2)CSSC[C@@H](C(=O)N[C@H](Cc2ccc(O)cc2)C(N)=O)NC1=O"}, "B7": {"name": "Compound 4: H-Cpa-cyclo[DCys-Tyr-D-(4-carbamoyl)Phe-Lys-Thr-Cys]-DTyr-NH2 (peptide)", "peptide": "XXYXKTCX", "HELM": "PEPTIDE1{[N[C@@H](Cc1ccc(Cl)cc1)C(=O)[*:2]].[dC].Y.[NC(=O)c1ccc(C[C@@H](N[*:1])C(=O)[*:2])cc1].K.T.C.[dY].[am]}$PEPTIDE1,PEPTIDE1,2:R3-7:R3$$$V2.0", "SMILES": "C[C@@H](O)[C@@H]1NC(=O)[C@H](CCCCN)NC(=O)[C@@H](Cc2ccc(C(N)=O)cc2)NC(=O)[C@H](Cc2ccc(O)cc2)NC(=O)[C@H](NC(=O)[C@@H](N)Cc2ccc(Cl)cc2)CSSC[C@@H](C(=O)N[C@H](Cc2ccc(O)cc2)C(N)=O)NC1=O"}, "B8": {"name": "Compound 7: H-Cpa-cyclo[DCys-Tyr-D-(4-ureidomethyl)Phe-Lys-Thr-Cys]-DTyr-NH2 (peptide)", "peptide": "XXYXKTCX", "HELM": "PEPTIDE1{[N[C@@H](Cc1ccc(Cl)cc1)C(=O)[*:2]].[dC].Y.[NC(=O)NCc1ccc(C[C@@H](N[*:1])C(=O)[*:2])cc1].K.T.C.[dY].[am]}$PEPTIDE1,PEPTIDE1,2:R3-7:R3$$$V2.0", "SMILES": "C[C@@H](O)[C@@H]1NC(=O)[C@H](CCCCN)NC(=O)[C@@H](Cc2ccc(CNC(N)=O)cc2)NC(=O)[C@H](Cc2ccc(O)cc2)NC(=O)[C@H](NC(=O)[C@@H](N)Cc2ccc(Cl)cc2)CSSC[C@@H](C(=O)N[C@H](Cc2ccc(O)cc2)C(N)=O)NC1=O"}}, "assay_in_all_cases": "cell-based or functional assay", "key": {"[1]": {"target": "somatostatin receptor SSTR3 (UniProt P32745 1-418)", "sequence (P32745 whole entry)": "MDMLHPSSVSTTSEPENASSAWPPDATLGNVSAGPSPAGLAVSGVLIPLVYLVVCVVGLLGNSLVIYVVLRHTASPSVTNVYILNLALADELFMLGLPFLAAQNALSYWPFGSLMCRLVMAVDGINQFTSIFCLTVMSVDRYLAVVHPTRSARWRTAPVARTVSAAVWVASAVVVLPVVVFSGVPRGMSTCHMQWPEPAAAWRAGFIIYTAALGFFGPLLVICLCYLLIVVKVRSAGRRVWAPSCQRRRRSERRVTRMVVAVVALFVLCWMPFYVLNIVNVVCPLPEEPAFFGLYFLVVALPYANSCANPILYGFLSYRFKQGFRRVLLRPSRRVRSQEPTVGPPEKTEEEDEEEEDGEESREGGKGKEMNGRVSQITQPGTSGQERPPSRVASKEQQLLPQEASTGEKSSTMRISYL"}, "[2]": {"target": "somatostatin receptor type 2 (SSTR2) (UniProt P30874 1-369)", "sequence (P30874 whole entry)": "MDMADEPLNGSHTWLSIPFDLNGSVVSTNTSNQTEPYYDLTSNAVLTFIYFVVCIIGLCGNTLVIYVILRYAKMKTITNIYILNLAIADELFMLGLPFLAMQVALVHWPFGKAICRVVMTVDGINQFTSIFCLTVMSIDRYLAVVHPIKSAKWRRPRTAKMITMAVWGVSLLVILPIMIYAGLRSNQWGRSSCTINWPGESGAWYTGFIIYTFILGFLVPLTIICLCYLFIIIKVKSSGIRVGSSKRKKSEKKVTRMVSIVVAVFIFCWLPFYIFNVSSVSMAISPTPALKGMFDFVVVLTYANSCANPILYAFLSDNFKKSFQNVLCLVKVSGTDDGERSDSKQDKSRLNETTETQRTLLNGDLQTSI"}, "[3]": {"target": "somatostatin receptor SSTR1 (UniProt P30872 1-391)", "sequence (P30872 whole entry)": "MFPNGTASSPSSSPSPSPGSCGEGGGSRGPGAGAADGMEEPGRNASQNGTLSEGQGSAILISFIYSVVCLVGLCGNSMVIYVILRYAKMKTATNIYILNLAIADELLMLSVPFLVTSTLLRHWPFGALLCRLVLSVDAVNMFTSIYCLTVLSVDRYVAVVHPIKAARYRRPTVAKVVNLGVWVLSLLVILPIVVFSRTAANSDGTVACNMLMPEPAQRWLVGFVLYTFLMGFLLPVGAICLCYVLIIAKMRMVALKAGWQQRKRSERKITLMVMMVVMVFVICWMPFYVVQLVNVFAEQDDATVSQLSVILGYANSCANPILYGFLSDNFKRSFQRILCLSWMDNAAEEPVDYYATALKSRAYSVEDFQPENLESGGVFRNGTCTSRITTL"}, "[4]": {"target": "somatostatin receptor SSTR5 (UniProt P35346 1-364)", "sequence (P35346 whole entry)": "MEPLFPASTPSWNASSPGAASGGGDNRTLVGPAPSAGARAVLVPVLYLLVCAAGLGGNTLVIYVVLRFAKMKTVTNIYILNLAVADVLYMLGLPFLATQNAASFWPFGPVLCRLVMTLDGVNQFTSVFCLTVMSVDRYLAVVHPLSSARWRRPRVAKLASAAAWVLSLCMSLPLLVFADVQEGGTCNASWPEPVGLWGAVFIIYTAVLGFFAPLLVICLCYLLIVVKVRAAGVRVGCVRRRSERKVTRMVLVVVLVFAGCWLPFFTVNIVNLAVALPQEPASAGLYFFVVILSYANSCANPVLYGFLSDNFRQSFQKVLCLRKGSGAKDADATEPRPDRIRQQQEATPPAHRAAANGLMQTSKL"}, "[5]": {"target": "somatostatin receptor SSTR4 (UniProt P31391 1-388)", "sequence (P31391 whole entry)": "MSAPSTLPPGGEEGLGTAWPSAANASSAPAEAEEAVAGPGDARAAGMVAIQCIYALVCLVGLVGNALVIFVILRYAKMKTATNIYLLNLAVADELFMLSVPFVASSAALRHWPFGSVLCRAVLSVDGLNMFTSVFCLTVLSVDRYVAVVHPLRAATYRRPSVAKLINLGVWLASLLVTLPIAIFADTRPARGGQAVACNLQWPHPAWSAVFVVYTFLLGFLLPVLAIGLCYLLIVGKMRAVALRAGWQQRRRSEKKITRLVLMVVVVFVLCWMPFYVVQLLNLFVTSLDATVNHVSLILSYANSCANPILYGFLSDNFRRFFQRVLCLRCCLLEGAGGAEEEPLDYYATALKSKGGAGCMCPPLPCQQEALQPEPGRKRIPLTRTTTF"}}, "note": "Positions of bridges follow the written chain, without caps; N, C: chain ends. Non-standard residues stand in square brackets, D forms with d. *: point of attachment. dPhe(4-CONH2) = NC(=O)c1ccc(C[C@@H](N)C(=O)O)cc1; Phe(4-Cl) = N[C@@H](Cc1ccc(Cl)cc1)C(=O)O; Nicotinoyl = O=C(c1cccnc1)*"}
{"binder": "H-[Phe(4-Cl)][dC]Y[dAph(Val)]KTC[dY]-NH2 (disulfide 2-7)", "note": "[Compound 23: H-Cpa-cyclo[DCys-Tyr-D-4-(Val)Aph-Lys-Thr-Cys]-DTyr-NH2]", "values": [{"measurement": "IC50 (PathHunter β-Arrestin, antagonist mode)", "setting": "[1]", "result": "> 1", "unit": "µM"}, {"measurement": "IC50 (PathHunter β-Arrestin, antagonist mode)", "setting": "[2]", "result": 0.458, "unit": "µM"}]}
{"binder": "B1", "values": [{"measurement": "IC50 (PathHunter β-Arrestin, antagonist mode)", "setting": "[1]", "result": "> 1", "unit": "µM"}, {"measurement": "IC50 (PathHunter β-Arrestin, antagonist mode)", "setting": "[3]", "result": "> 1", "unit": "µM"}, {"measurement": "IC50 (PathHunter β-Arrestin, antagonist mode)", "setting": "[4]", "result": "> 1", "unit": "µM"}, {"measurement": "IC50 (PathHunter β-Arrestin, antagonist mode)", "setting": "[2]", "result": 0.017, "unit": "µM"}, {"measurement": "IC50 (PathHunter β-Arrestin, antagonist mode)", "setting": "[5]", "result": "> 1", "unit": "µM"}]}
{"binder": "B2", "values": [{"measurement": "IC50 (PathHunter β-Arrestin, antagonist mode)", "setting": "[1]", "result": "> 1", "unit": "µM"}, {"measurement": "IC50 (PathHunter β-Arrestin, antagonist mode)", "setting": "[3]", "result": "> 1", "unit": "µM"}, {"measurement": "IC50 (PathHunter β-Arrestin, antagonist mode)", "setting": "[4]", "result": "> 1", "unit": "µM"}, {"measurement": "IC50 (PathHunter β-Arrestin, antagonist mode)", "setting": "[2]", "result": 0.034, "unit": "µM"}, {"measurement": "IC50 (PathHunter β-Arrestin, antagonist mode)", "setting": "[5]", "result": "> 1", "unit": "µM"}]}
{"binder": "B3", "values": [{"measurement": "IC50 (PathHunter β-Arrestin, antagonist mode)", "setting": "[1]", "result": "> 1", "unit": "µM"}, {"measurement": "IC50 (PathHunter β-Arrestin, antagonist mode)", "setting": "[3]", "result": "> 1", "unit": "µM"}, {"measurement": "IC50 (PathHunter β-Arrestin, antagonist mode)", "setting": "[4]", "result": "> 1", "unit": "µM"}, {"measurement": "IC50 (PathHunter β-Arrestin, antagonist mode)", "setting": "[2]", "result": 0.001, "unit": "µM"}, {"measurement": "IC50 (PathHunter β-Arrestin, antagonist mode)", "setting": "[5]", "result": "> 1", "unit": "µM"}]}
{"binder": "B4", "values": [{"measurement": "IC50 (PathHunter β-Arrestin, antagonist mode)", "setting": "[1]", "result": "> 1", "unit": "µM"}, {"measurement": "IC50 (PathHunter β-Arrestin, antagonist mode)", "setting": "[3]", "result": "> 1", "unit": "µM"}, {"measurement": "IC50 (PathHunter β-Arrestin, antagonist mode)", "setting": "[4]", "result": "> 1", "unit": "µM"}, {"measurement": "IC50 (PathHunter β-Arrestin, antagonist mode)", "setting": "[2]", "result": 0.00096, "unit": "µM"}, {"measurement": "IC50 (PathHunter β-Arrestin, antagonist mode)", "setting": "[5]", "result": "> 1", "unit": "µM"}]}
{"binder": "H-[Phe(4-Cl)][dC]Y[dHoCit]KTC[dY]-NH2 (disulfide 2-7)", "note": "[Compound 2: H-Cpa-cyclo[DCys-Tyr-DHoCit-Lys-Thr-Cys]-DTyr-NH2]", "values": [{"measurement": "IC50 (PathHunter β-Arrestin, antagonist mode)", "setting": "[1]", "result": "> 1", "unit": "µM"}, {"measurement": "IC50 (PathHunter β-Arrestin, antagonist mode)", "setting": "[2]", "result": 0.181, "unit": "µM"}]}
{"binder": "B5", "values": [{"measurement": "IC50 (PathHunter β-Arrestin, antagonist mode)", "setting": "[1]", "result": "> 1", "unit": "µM"}, {"measurement": "IC50 (PathHunter β-Arrestin, antagonist mode)", "setting": "[3]", "result": "> 1", "unit": "µM"}, {"measurement": "IC50 (PathHunter β-Arrestin, antagonist mode)", "setting": "[4]", "result": "> 1", "unit": "µM"}, {"measurement": "IC50 (PathHunter β-Arrestin, antagonist mode)", "setting": "[2]", "result": 0.021, "unit": "µM"}, {"measurement": "IC50 (PathHunter β-Arrestin, antagonist mode)", "setting": "[5]", "result": "> 1", "unit": "µM"}]}
{"binder": "B6", "values": [{"measurement": "IC50 (PathHunter β-Arrestin, antagonist mode)", "setting": "[1]", "result": "> 1", "unit": "µM"}, {"measurement": "IC50 (PathHunter β-Arrestin, antagonist mode)", "setting": "[2]", "result": 0.251, "unit": "µM"}]}
{"binder": "B7", "values": [{"measurement": "IC50 (PathHunter β-Arrestin, antagonist mode)", "setting": "[1]", "result": "> 1", "unit": "µM"}, {"measurement": "IC50 (PathHunter β-Arrestin, antagonist mode)", "setting": "[3]", "result": "> 1", "unit": "µM"}, {"measurement": "IC50 (PathHunter β-Arrestin, antagonist mode)", "setting": "[4]", "result": "> 1", "unit": "µM"}, {"measurement": "IC50 (PathHunter β-Arrestin, antagonist mode)", "setting": "[2]", "result": 0.017, "unit": "µM"}, {"measurement": "IC50 (PathHunter β-Arrestin, antagonist mode)", "setting": "[5]", "result": "> 1", "unit": "µM"}]}
{"binder": "H-[Phe(4-Cl)][dC]Y[dAph(Cit)]KTC[dY]-NH2 (disulfide 2-7)", "note": "[Compound 22: H-Cpa-cyclo[DCys-Tyr-D-4-(Cit)Aph-Lys-Thr-Cys]-DTyr-NH2]", "values": [{"measurement": "IC50 (PathHunter β-Arrestin, antagonist mode)", "setting": "[1]", "result": "> 1", "unit": "µM"}, {"measurement": "IC50 (PathHunter β-Arrestin, antagonist mode)", "setting": "[2]", "result": 0.417, "unit": "µM"}]}
{"binder": "B8", "values": [{"measurement": "IC50 (PathHunter β-Arrestin, antagonist mode)", "setting": "[1]", "result": "> 1", "unit": "µM"}, {"measurement": "IC50 (PathHunter β-Arrestin, antagonist mode)", "setting": "[3]", "result": "> 1", "unit": "µM"}, {"measurement": "IC50 (PathHunter β-Arrestin, antagonist mode)", "setting": "[4]", "result": "> 1", "unit": "µM"}, {"measurement": "IC50 (PathHunter β-Arrestin, antagonist mode)", "setting": "[2]", "result": 0.031, "unit": "µM"}, {"measurement": "IC50 (PathHunter β-Arrestin, antagonist mode)", "setting": "[5]", "result": "> 1", "unit": "µM"}]}
